Results: paper PMC3900686 (2014)

How the values were obtained:
Assay in all cases: ITC; LCMT-1 preloaded with SAH
[1] = biological target: PP2A catalytic Cα-subunit (free PP2Ac) ( ("mammalian PP2Ac"), UniProt P67775 1-309)
[2] = biological target: PP2A core enzyme (A–C heterodimer), unmethylated ( |  ("mammalian …, UniProt P30153 1-589; P67775 1-309)
[3] = biological target: methylated PP2A core enzyme (methylated AC heterodimer) ( |  ("mammalian …, UniProt P30153 1-589)); P67775 1-309, carboxyl methylation of the last leucine residue (Leu-309))
Sequence of methylated PP2A core enzyme (methylated AC heterodimer) ( |  (P30153 whole entry, chain 1 of 2): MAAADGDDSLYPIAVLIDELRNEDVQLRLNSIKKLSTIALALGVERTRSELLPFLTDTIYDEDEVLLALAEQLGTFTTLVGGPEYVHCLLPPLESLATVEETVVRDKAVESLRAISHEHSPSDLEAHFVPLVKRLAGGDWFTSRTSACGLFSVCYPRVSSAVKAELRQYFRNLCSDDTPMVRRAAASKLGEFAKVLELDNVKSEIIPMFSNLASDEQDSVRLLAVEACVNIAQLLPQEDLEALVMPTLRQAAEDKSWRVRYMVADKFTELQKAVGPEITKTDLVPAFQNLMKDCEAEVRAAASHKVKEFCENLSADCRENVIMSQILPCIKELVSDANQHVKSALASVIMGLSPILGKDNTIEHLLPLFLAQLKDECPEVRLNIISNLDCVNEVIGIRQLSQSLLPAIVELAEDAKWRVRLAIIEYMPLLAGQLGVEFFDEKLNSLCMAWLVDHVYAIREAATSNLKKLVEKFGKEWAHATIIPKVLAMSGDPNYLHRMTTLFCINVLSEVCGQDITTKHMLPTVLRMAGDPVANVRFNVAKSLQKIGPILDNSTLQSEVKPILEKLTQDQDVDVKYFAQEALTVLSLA
Sequence of methylated PP2A core enzyme (methylated AC heterodimer) ( |  (P67775 whole entry, chain 2 of 2): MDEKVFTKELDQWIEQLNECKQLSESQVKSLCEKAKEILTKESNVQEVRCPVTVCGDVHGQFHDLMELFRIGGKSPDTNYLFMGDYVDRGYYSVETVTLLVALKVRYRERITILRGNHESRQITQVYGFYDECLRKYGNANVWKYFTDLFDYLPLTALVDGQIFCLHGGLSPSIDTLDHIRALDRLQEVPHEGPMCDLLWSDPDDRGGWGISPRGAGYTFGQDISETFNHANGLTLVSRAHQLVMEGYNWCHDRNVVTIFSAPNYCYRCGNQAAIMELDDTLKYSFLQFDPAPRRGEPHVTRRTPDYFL

Sequence of PP2A catalytic Cα-subunit (free PP2Ac) (P67775 whole entry): as the sequence (P67775 whole entry, chain 2 of 2) above
Sequence of PP2A core enzyme (A–C heterodimer), unmethylated ( |  (P30153 whole entry, chain 1 of 2): as the sequence (P30153 whole entry, chain 1 of 2) above
Sequence of PP2A core enzyme (A–C heterodimer), unmethylated ( |  (P67775 whole entry, chain 2 of 2): as the sequence (P67775 whole entry, chain 2 of 2) above

B1: PP2A-specific leucine carboxyl methyltransferase 1 (LCMT-1) (enzyme)
chain: MATRQRESSITSCCSTSSCDADDEGVRGTCEDASLCKRFAVSIGYWHDPYIQHFVRLSKERKAPEINRGYFARVHGVSQLIKAFLRKTECHCQIVNLGAGMDTTFWRLKDEDLLPSKYFEVDFPMIVTRKLHSIKCKPPLSSPILELHSEDTLQMDGHILDSKRYAVIGADLRDLSELEEKLKKCNMNTQLPTLLIAECVLVYMTPEQSANLLKWAANSFERAMFINYEQVNMGDRFGQIMIENLRRRQCDLAGVETCKSLESQKERLLSNGWETASAVDMMELYNRLPRAEVSRIESLEFLDEMELLEQLMRHYCLCWATKGGNELGLKEITY
For B1, the Kd [1] was 560 nM, the Kd [2] was 140 nM and the Kd [3] was 630 nM.
